Source: the Immune Epitope Database (IEDB)
Values belong to the sequence of their own block, whether it stands above or below them.

What was measured:
HLA-A*02:03 = assay: IEDB peptide-MHC binding, purified MHC/direct/fluorescence; filed as Kd, often an IC50 or EC50 that approximates it; ≥ and ≤ were set here for values at or beyond the usual limits of such assays; settings: source organism: Choclo virus
HLA-A*02:11 [1] = assay: as above; settings: source organism: Choclo virus
HLA-A*02:12 = assay: as above; settings: source organism: Choclo virus
HLA-A*02:16 = assay: as above; settings: source organism: Choclo virus
HLA-A*02:19 = assay: as above; settings: source organism: Choclo virus
HLA-A*03:01 [2] = assay: as above; settings: source organism: Choclo virus
HLA-A*23:01 = assay: as above; settings: source organism: Choclo virus
HLA-A*24:03 = assay: as above; settings: source organism: Choclo virus
HLA-A*68:02 = assay: as above; settings: source organism: Choclo virus
HLA-B*07:02 = assay: as above; settings: source organism: Orthohantavirus andesense
HLA-A*02:01 = assay: IEDB peptide-MHC binding, purified MHC/competitive/fluorescence; filed as Kd, often an IC50 or EC50 that approximates it; ≥ and ≤ were set here for values at or beyond the usual limits of such assays
HLA-A*26:01 = assay: as above; settings: source organism: Choclo virus
HLA-A*68:23 = assay: as above
HLA-A*69:01 = assay: as above; settings: source organism: Choclo virus
HLA-B*15:01 = assay: as above; settings: source organism: Choclo virus
HLA-B*15:17 = assay: as above; settings: source organism: Choclo virus
HLA-B*15:42 = assay: as above
HLA-B*27:03 = assay: as above
HLA-B*35:01 = assay: as above; settings: source organism: Choclo virus
HLA-B*39:01 = assay: as above; settings: source organism: Choclo virus
HLA-B*45:06 = assay: as above
HLA-B*46:01 = assay: as above; settings: source organism: Choclo virus
HLA-B*51:01 = assay: as above; settings: source organism: Choclo virus
HLA-B*57:01 = assay: as above
HLA-B*83:01 = assay: as above
HLA-B*73:01 = assay: IEDB peptide-MHC binding, purified MHC/direct/fluorescence; filed as Kd, often an IC50 or EC50 that approximates it; ≥ and ≤ were set here for values at or beyond the usual limits of such assays; settings: source organism: Mus musculus
HLA-C*05:01 = assay: as above
HLA-C*06:02 = assay: as above; settings: source organism: Homo sapiens
HLA-C*07:02 = assay: as above; settings: source organism: Homo sapiens
HLA-A*32:15 = assay: IEDB peptide-MHC binding, purified MHC/competitive/fluorescence; filed as Kd, often an IC50 or EC50 that approximates it; ≥ and ≤ were set here for values at or beyond the usual limits of such assays; settings: source organism: Homo sapiens
HLA-C*03:03 = assay: IEDB peptide-MHC binding, purified MHC/direct/fluorescence; filed as Kd, often an IC50 or EC50 that approximates it; ≥ and ≤ were set here for values at or beyond the usual limits of such assays; settings: source organism: Rickettsia bellii RML369-C
HLA-A*02:11 [3] = assay: IEDB peptide-MHC binding, purified MHC/competitive/fluorescence; filed as Kd, often an IC50 or EC50 that approximates it; ≥ and ≤ were set here for values at or beyond the usual limits of such assays; settings: source organism: Rickettsia bellii RML369-C
HLA-A*03:01 [4] = assay: as above; settings: source organism: Rickettsia bellii RML369-C
HLA-A*29:02 = assay: as above; settings: source organism: Rickettsia bellii RML369-C
HLA-A*80:01 = assay: as above; settings: source organism: Rickettsia bellii RML369-C
HLA-B*18:01 = assay: as above; settings: source organism: Rickettsia bellii RML369-C
[5] = source organism: Rickettsia bellii RML369-C

Sequence: LPSSSSYSY
- Kd (HLA-A*02:03): ≥ 20 µM
- Kd (HLA-A*02:11 [1]): ≥ 20 µM
- Kd (HLA-A*02:12): ≥ 20 µM
- Kd (HLA-A*02:16): ≥ 20 µM
- Kd (HLA-A*02:19): ≥ 20 µM
- Kd (HLA-A*03:01 [2]): ≥ 20 µM
- Kd (HLA-A*23:01): ≥ 20 µM
- Kd (HLA-A*24:03): ≥ 20 µM
- Kd (HLA-A*68:02): ≥ 20 µM
- Kd (HLA-B*07:02): 14 µM
- Kd (HLA-A*02:01; source organism: Choclo virus): ≥ 20 µM
- Kd (HLA-A*26:01): ≥ 20 µM
- Kd (HLA-A*68:23; source organism: Choclo virus): 1.6 µM
- Kd (HLA-A*69:01): ≥ 20 µM
- Kd (HLA-B*15:01): ≥ 20 µM
- Kd (HLA-B*15:17): ≥ 20 µM
- Kd (HLA-B*15:42; source organism: Choclo virus): ≥ 5 µM
- Kd (HLA-B*27:03; source organism: Choclo virus): ≥ 20 µM
- Kd (HLA-B*35:01): ≤ 0.0001 µM
- Kd (HLA-B*39:01): ≥ 20 µM
- Kd (HLA-B*45:06; source organism: Choclo virus): ≥ 5 µM
- Kd (HLA-B*46:01): ≥ 20 µM
- Kd (HLA-B*51:01): ≥ 20 µM
- Kd (HLA-B*57:01; source organism: Choclo virus): ≥ 20 µM
- Kd (HLA-B*83:01; source organism: Choclo virus): 0.747 µM

- Kd (HLA-B*73:01): 6 µM
- Kd (HLA-C*05:01; source organism: Homo sapiens): ≥ 20 µM
- Kd (HLA-C*06:02): ≥ 20 µM
- Kd (HLA-C*07:02): ≥ 20 µM
- Kd (HLA-A*32:15): 0.295 µM
- Kd (HLA-A*68:23; source organism: Homo sapiens): 0.271 µM
- Kd (HLA-B*15:42; source organism: Homo sapiens): ≥ 5 µM
- Kd (HLA-B*45:06; source organism: Homo sapiens): ≥ 5 µM
- Kd (HLA-B*83:01; source organism: Homo sapiens): 0.069 µM
Sequence: MPMKGRFPI

Sequence: FTIGNMFSL
- Kd (HLA-C*03:03): 0.055 µM
- Kd (HLA-C*05:01; [5]): ≥ 20 µM
- Kd (HLA-A*02:01; [5]): 0.0244 µM
- Kd (HLA-A*02:11 [3]): 0.0059 µM
- Kd (HLA-A*03:01 [4]): ≥ 20 µM
- Kd (HLA-A*29:02): 0.738 µM
- Kd (HLA-A*80:01): ≥ 20 µM
- Kd (HLA-B*18:01): ≥ 20 µM
- Kd (HLA-B*27:03; [5]): ≥ 20 µM
- Kd (HLA-B*57:01; [5]): ≥ 20 µM
